Changes are numbered by the printed parent chain.
T1: Ang2 with F469 mutated with alanine, tagged with FLAG (human, UniProt O15123 19-496, limits assumed)
T1 sequence: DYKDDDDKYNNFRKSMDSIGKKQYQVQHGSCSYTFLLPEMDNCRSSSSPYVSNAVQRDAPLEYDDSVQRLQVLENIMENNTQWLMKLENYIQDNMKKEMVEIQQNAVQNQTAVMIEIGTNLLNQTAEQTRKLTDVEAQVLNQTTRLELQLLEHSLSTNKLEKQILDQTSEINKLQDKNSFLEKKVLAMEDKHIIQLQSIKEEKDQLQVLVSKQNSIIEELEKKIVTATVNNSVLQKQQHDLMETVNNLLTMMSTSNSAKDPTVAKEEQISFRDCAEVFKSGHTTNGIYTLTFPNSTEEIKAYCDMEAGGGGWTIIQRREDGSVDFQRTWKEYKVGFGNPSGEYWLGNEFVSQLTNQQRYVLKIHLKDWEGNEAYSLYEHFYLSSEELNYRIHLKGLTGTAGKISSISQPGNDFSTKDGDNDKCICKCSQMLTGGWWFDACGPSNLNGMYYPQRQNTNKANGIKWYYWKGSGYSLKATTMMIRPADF

T2: Ang2 with N467 mutated with alanine, tagged with FLAG (human, UniProt O15123 19-496, limits assumed)
T2 sequence: T1 sequence with N457A, A459F

T3: Ang2 with K468 mutated with alanine, tagged with FLAG (human, UniProt O15123 19-496, limits assumed)
T3 sequence: T1 sequence with K458A, A459F

T4: Ang2 with Y460 mutated with alanine, tagged with FLAG (human, UniProt O15123 19-496, limits assumed)
T4 sequence: T1 sequence with Y450A, A459F

B1: SAIT-ANG-2-AB-2-E6 (scFv form) (scFv, V domains shown)
VH: EVQLLESGGGLVQTGGSLRLSCAASGFTFSDYAMSWVRQAPGKGLEWVSAIYPDSGNKYYADSVKGRFTISRDNSKNTLYLQMNSLRAEDTAVYYCARHSSDPKVKSGYYDDGMDVWGQGTLVAVSS
VL: QSVLTQPPSASGTPGQRVTISCSGSSSNIGNNAVNWYQQLPGTAPKLLIYADSNRPSGVPDRFSGSKSGTSASLAISGLRSEDEADYYCGSWDYSLSGYVFGGGTKLTVLG
notes: scFv from a phage display library, partly purified from E. coli periplasm on Ni-NTA and detected with anti-HA
B2: SAIT-ANG-2-AB-7-C9 (scFv form) (scFv, V domains shown)
VH: EVQLLESGGGLVQPGGSLRLSCAASGFTFSNYAMSWVRQAPGKGLEWVSAISSGGGNIYYADSVKGRFTISRDNSKNTLYLQMNSLRAEDTAVYYCAKSGIQPSPPSMSSAYAMDVWGQGTLVTVSS
VL: B1 VL with A33D, N35Y, D52N, N54H, S91T
notes: scFv from a phage display library
B3: SAIT-ANG-2-AB-3-D3 (scFv form) (scFv, V domains shown)
VH: EVQLLESGGGLVQPGGSLRLSCAASGFTFSDYDMSWVRQAPGKGLEWVSGISSDDGNTYYADSVKGRFTISRDNSKNTLYLQMNSLRAEDTAVYYCARPTIDKYTLRGYYSYGMDVWGQGTLVTVSS
VL: B1 VL with S23T, N31S, A33Y, N35S, A51S, S53N, N54K, S91T, Y94D, S97N
notes: as for B2
B4: SAIT-ANG-2-AB-4-C11 (scFv form) (scFv, V domains shown)
VH: EVQLLESGGGLVQPGGSLRLSCAASGFTFSDYAMSWVRQAPGKGLEWVSSIYPDDGNTYYADSVKGRFTISRDNSKNTLYLQMNSLRAEDTAVYYCARHTSHHTSIDGYYYYGMDGWGQGTLVTVSS
VL: B1 VL with S23T, A33D, N35S, A51S, N54K
notes: as for B2
B5: SAIT-ANG-2-AB-4-F5 (scFv form) (scFv, V domains shown)
VH: EVQLLESGGGLVQPGGSLRLSCAASGFTFSDYDMSWVRQAPGKGLEWVSSISHGDSNKYYADSVKGRFTISRDNSKNTLYLQMNSLRAEDTAVYYCAKSSGIQESPPTYYYYGMDVWGQGTLVTVSS
VL: B1 VL with N31S
notes: as for B2
B6: SAIT-ANG-2-AB-4-F11 (scFv form) (scFv, V domains shown)
VH: EVQLLESGGGLVQTGGSLRLSCAASGFTFSDYAMSWVRQAPGKGLEWVSSIYPDDGNTYYADSVKGRFTISRDNSKNTLYLQMNSLRAEDTAVYYCAKHPVRLNLHPMYYYYGMDVWGQGTLVTVSS
VL: B1 VL with S23T, N35S, A51S, N54Q, G90A, S91T, G98A
notes: as for B2
B7: SAIT-ANG-2-AB-8-A5 (scFv form) (scFv, V domains shown)
VH: EVQLLESGGGLVQPGGSLRLSCAASGFTFSDYYMSWVRQAPGKGLEWVSGIYPSGGSTYYADSVKGRFTISRDNSKNTLYLQMNSLRAEDTAVYYCARDPSTLTYAGFDYWGQGTLVTVSS
VL: B1 VL with A33Y, N35T, N54H, G90A, S91T
notes: as for B2

Target: T1, Ang2 with F469 mutated with alanine, …
Assay: ELISA, scFv coated, 250 ng FLAG-tagged Ang2 mutant, anti-FLAG-HRP
Method: (§1) A 96-well MaxiSorp™ flat-bottom plate (Nunc) was coated with 50 μl of the anti-Ang2 scFv selected above. After that, the plate was washed five times with 0.05% (v/v) Tween-20-containing PBS and then blocked with 1% (v/v) BSA-containing PBS at a room temperature for 2 hours. […] Thereafter, the plate was washed five times with 0.05% Tween-20-containing PBS and then, an HRP-conjugated anti-FLAG antibody (SIGMA) diluted in 1% (v/v) BSA-containing PBS at 1:5,000 ratio (v/v) was added in the amount of 50 μl to each well to react at a room temperature for 1 hour, followed by washing five times with 0.1% (v/v) Tween-20-containing PBS.
(§2) Finally, 100 μl of TMB substrate (cell signal) was added to each well of the plate to induce color development and then, the reaction was ceased by the addition of 50 μl of 5N H₂SO₄ solution and OD450 values were measured on a plate reader (Molecular Devices).

Compared with B1, B2 is lower in “Relative binding (%) with Mutant Ang2 compared to the binding with native Ang2” value (“Relative binding (%) with Mutant Ang2” below): 112% for the first, 89.4% for the second.

Compared with B3, B4 is higher in “Relative binding (%) with Mutant Ang2” value: 96.4% for the first, 102% for the second.

Compared with B5, B6 is lower in “Relative binding (%) with Mutant Ang2” value: 259% for the first, 105% for the second.

For B7, the “Relative binding (%) with Mutant Ang2” value was 102%.

Target: T2, Ang2 with N467 mutated with alanine, …
Assay: as above
Method: as §1, §2

First: B1
Second: B2
The “Relative binding (%) with Mutant Ang2” value of the first is lower: 72.1% for the first, 86.6% for the second.

Compared with B3, B4 is lower in “Relative binding (%) with Mutant Ang2” value: 90.9% for the first, 81.7% for the second.

Going from B5 to B6, the “Relative binding (%) with Mutant Ang2” value rises from 11.3% to 92%.

For B7, the “Relative binding (%) with Mutant Ang2” value was 90.7%.

Target: T3, Ang2 with K468 mutated with alanine, …
Assay: as above
Method: as §1, §2

Compared with B1, B2 is higher in “Relative binding (%) with Mutant Ang2” value: 94% for the first, 97.3% for the second.

Going from B3 to B4, the “Relative binding (%) with Mutant Ang2” value falls from 95.9% to 94.8%.

First: B5
Second: B6
The “Relative binding (%) with Mutant Ang2” value of the first is lower: 87.4% for the first, 102% for the second.

B7 was tested, and the “Relative binding (%) with Mutant Ang2” value was 101%.

Target: T4, Ang2 with Y460 mutated with alanine, …
Assay: as above
Method: as §1, §2

Going from B1 to B2, the “Relative binding (%) with Mutant Ang2” value rises from 40% to 78.1%.

First: B3
Second: B4
The “Relative binding (%) with Mutant Ang2” value of the first is higher: 95.1% for the first, 74.3% for the second.

Compared with B5, B6 is higher in “Relative binding (%) with Mutant Ang2” value: 21.8% for the first, 96.1% for the second.

In the case of B7, the “Relative binding (%) with Mutant Ang2” value is reported as 91.6%.

Source: patent publication US20150152192A1 (SAMSUNG ELECTRONICS, published 2015)
